We go through one substance from patent US20240352117A1.

In this assay the target is natural TSLP. Nature of the assay: cell-based or functional assay.

Take Tezepelumab (antibody): the IC50 of inhibiting STAT5 phosphorylation in SW756-STAT5-Luciferase reporter gene cells induced by natural TSLP is 1.45 ng/mL.
